From patent US20150274781A1 (UNIVERSITAET LEIPZIG, published 2015)
Where no end group is shown, it is not given here. [ ]: non-standard residue; d: D form. d1Nal = N[C@H](Cc1cccc2ccccc12)C(=O)O; Phg = N[C@H](C(=O)O)c1ccccc1; Nva = CCC[C@H](N)C(=O)O

B1: KwFwLL-NH2 (peptide)
peptide: K[dW]F[dW]LL-NH2
modifications: N-terminus assumed
SMILES: CC(C)C[C@H](NC(=O)[C@H](CC(C)C)NC(=O)[C@@H](Cc1c[nH]c2ccccc12)NC(=O)[C@H](Cc1ccccc1)NC(=O)[C@@H](Cc1c[nH]c2ccccc12)NC(=O)[C@@H](N)CCCCN)C(N)=O
B2: K-(D-1-Nal)-(L-Cha)-wLL-NH2 (peptide)
peptide: KXXXLL
modifications: 1-naphthyl-D-alanine (D-1-Nal) at 2; 3-cyclohexyl-L-alanine (L-Cha) at 3; D-Trp at 4; C-terminal amide
B3: K-(D-1-Nal)-(L-tBf)-wLL-NH2 (peptide)
peptide: KXXXLL
modifications: 1-naphthyl-D-alanine (D-1-Nal) at 2; tert-butyl-L-phenylalanine (L-tBf) at 3; D-Trp at 4; C-terminal amide
B4: K-(D-1-Nal)-(L-Nva)-wLL-NH2 (peptide)
peptide: K[d1Nal][Nva][dW]LL-NH2
modifications: N-terminus assumed
SMILES: CCC[C@H](NC(=O)[C@@H](Cc1cccc2ccccc12)NC(=O)[C@@H](N)CCCCN)C(=O)N[C@H](Cc1c[nH]c2ccccc12)C(=O)N[C@@H](CC(C)C)C(=O)N[C@@H](CC(C)C)C(N)=O
B5: K-(D-1-Nal)-(L-Phg)-wLL-NH2 (peptide)
peptide: K[d1Nal][Phg][dW]LL-NH2
modifications: N-terminus assumed
SMILES: CC(C)C[C@H](NC(=O)[C@H](CC(C)C)NC(=O)[C@@H](Cc1c[nH]c2ccccc12)NC(=O)[C@@H](NC(=O)[C@@H](Cc1cccc2ccccc12)NC(=O)[C@@H](N)CCCCN)c1ccccc1)C(N)=O

target: T1, human ghrelin receptor (human, UniProt Q92847 1-366); test: cell-based or functional assay
T1 sequence (Q92847 whole entry): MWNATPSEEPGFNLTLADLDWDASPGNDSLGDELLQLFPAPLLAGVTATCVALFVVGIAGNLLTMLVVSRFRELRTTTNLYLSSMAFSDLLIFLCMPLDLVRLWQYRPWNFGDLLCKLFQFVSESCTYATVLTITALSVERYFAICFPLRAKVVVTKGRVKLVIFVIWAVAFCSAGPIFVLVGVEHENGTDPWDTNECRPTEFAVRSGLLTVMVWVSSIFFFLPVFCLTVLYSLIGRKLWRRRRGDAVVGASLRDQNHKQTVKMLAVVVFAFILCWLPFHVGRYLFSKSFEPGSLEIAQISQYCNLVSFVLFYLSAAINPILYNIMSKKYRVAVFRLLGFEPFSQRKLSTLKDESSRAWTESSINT

Row | Binder | EC50, inverse agonistic activity, inositol trisphosphate turnover assay in COS-7 cells transfected with the ghrelin receptor [nM] | Emax [Δ %], inverse agonistic activity, inositol trisphosphate turnover assay
1 | B1 | 45.6 | 37 Δ %
2 | KXFXLL (beta-(3-benzothienyl)-D-alanine (D-Bth) at 2; D-Trp at 4; C-terminal amide) [K-(D-Bth)-FwLL-NH2] | – | 81 Δ %
3 | KXFXLL (3,3-diphenyl-D-alanine (D-Dip) at 2; D-Trp at 4; C-terminal amide) [K-(D-Dip)-FwLL-NH2] | 13.1 | 87 Δ %
4 | KXFXLL (2-naphthyl-D-alanine (D-2-Nal) at 2; D-Trp at 4; C-terminal amide) [K-(D-2-Nal)-FwLL-NH2] | 161 | 66 Δ %
5 | KXFXLL (4-benzoyl-D-phenylalanine (D-Bpa) at 2; D-Trp at 4; C-terminal amide) [K-(D-Bpa)-FwLL-NH2] | 169 | 67 Δ %
6 | KXFXLL (4,4'-biphenyl-D-alanine (D-Bip) at 2; D-Trp at 4; C-terminal amide) [K-(D-Bip)-FwLL-NH2] | 184 | 82 Δ %
7 | KXFXLL (D-Phe at 2; D-Trp at 4; C-terminal amide) [K-(D-Phe)-FwLL-NH2] | 241 | 62 Δ %
8 | KXFXLL (tert-butyl-D-phenylalanine (D-tBf) at 2; D-Trp at 4; C-terminal amide) [K-(D-tBf)-FwLL-NH2] | 624 | 76 Δ %
9 | KXFXLL (1-naphthyl-D-alanine (D-1-Nal) at 2; D-Trp at 4; C-terminal amide) [K-(D-1-Nal)-FwLL-NH2] | 3.4 | 64 Δ %

target: T1, human ghrelin receptor; test: cell-based or functional assay; remark: another data set of the same source

Row | Binder | EC50, inverse agonistic activity, inositol trisphosphate turnover assay in COS-7 cells transfected with the ghrelin receptor [nM] | Emax [Δ %], inverse agonistic activity, inositol trisphosphate turnover assay | x-fold (EC50) compared to K-(D-1-Nal)-FwLL-NH2 [fold] | x-fold (Emax) compared to K-(D-1-Nal)-FwLL-NH2 [fold]
10 | KXFXLL (1-naphthyl-D-alanine (D-1-Nal) at 2; D-Trp at 4; C-terminal amide) [K-(D-1-Nal)-FwLL-NH2] | 3.4 | 64 Δ % | – | –
11 | B2 | 96.8 | 85 Δ % | 28.5 | 1.3
12 | B3 | 124 | 84 Δ % | 36.5 | 1.3
13 | KXXXLL (1-naphthyl-D-alanine (D-1-Nal) at 2; D-Phe at 3; D-Trp at 4; C-terminal amide) [K-(D-1-Nal)-(D-Phe)-wLL-NH2] | 120 | 58 Δ % | 35.2 | 0.9
14 | B4 | 498 | 71 Δ % | 146 | 1.1
15 | B5 | > 1000 | – | > 290 | –

target: T1, human ghrelin receptor; test: cell-based or functional assay; remark: another data set of the same source

Row | Binder | EC50, agonistic activity, inositol trisphosphate turnover assay in COS-7 cells transfected with the ghrelin receptor [nM]
16 | KXFXLL (D-Trp at 2; 1-naphthyl-D-alanine (D-1-Nal) at 4; C-terminal amide) [KwF-(D-1-Nal)-LL-NH2] | 17.9
17 | KXFXLL (D-Trp at 2; 2-naphthyl-D-alanine (D-2-Nal) at 4; C-terminal amide) [KwF-(D-2-Nal)-LL-NH2] | 12.6
